Test [1] addresses rat CaMKIIα holoenzyme with pT286 (rat (Rattus norvegicus)) (UniProt P11275). Kind of test: high-speed atomic force microscopy; 50 nM CaMKII and 800 nM CaM premixed in buffer B with 1 mM CaCl2 and 1 mM ATP, 30 °C, 5 min; imaged in buffer A with 1 mM CaCl2 and 1 mM ATP on pillar[5]arene-modified mica, 24-26 °C.
Test [2] concerns the target rat CaMKIIα holoenzyme (wild type, not phosphorylated) (rat (Rattus norvegicus)) (UniProt P11275). Kind of test: high-speed atomic force microscopy; 50 nM CaMKII and 800 nM CaM premixed in buffer B (50 mM tris-HCl pH 7.4, 150 mM KCl, 10 mM MgCl2) with 1 mM CaCl2, 30 °C, 5 min, no ATP; imaged in buffer A with 1 mM CaCl2 on pillar[5]arene-modified mica, 24-26 °C.

With “rat calmodulin, 6xHis-tagged (Ca^2+-bound in the assays) (from UniProt P0DP29 1-149) (natural protein; other documents disagree on this pair)”, the fraction of Ca^2+/CaM bound longer than 60 s in test [1] stood at 77.3%; in test [2], 41.1%.

The record behind these values is publication PMC10313165.
